Test results as given in US20160304570A1.
Non-standard residues stand in square brackets, D forms with d. Groups on a side chain read outwards from the residue. Primed or numbered codes have the meaning given here. No end group written: not given here. *: point of attachment. X2 = ((2-hydroxyethyl)thio)acetamide, O=C(CSCCO)*; PEG11′ = not defined here; 4‑Pen = not defined here; Pra = C#CC[C@H](N)C(=O)O; Nva = CCC[C@H](N)C(=O)O; Abu = CC[C@H](N)C(=O)O; Atz = not defined here

Key:
Experiment in all cases: cell-based or functional assay
[1] = target: human voltage-gated sodium channel Nav1.3 (human) (UniProt Q9NY46)
human voltage-gated sodium channel Nav1.3 (human), sequence (Q9NY46 whole entry): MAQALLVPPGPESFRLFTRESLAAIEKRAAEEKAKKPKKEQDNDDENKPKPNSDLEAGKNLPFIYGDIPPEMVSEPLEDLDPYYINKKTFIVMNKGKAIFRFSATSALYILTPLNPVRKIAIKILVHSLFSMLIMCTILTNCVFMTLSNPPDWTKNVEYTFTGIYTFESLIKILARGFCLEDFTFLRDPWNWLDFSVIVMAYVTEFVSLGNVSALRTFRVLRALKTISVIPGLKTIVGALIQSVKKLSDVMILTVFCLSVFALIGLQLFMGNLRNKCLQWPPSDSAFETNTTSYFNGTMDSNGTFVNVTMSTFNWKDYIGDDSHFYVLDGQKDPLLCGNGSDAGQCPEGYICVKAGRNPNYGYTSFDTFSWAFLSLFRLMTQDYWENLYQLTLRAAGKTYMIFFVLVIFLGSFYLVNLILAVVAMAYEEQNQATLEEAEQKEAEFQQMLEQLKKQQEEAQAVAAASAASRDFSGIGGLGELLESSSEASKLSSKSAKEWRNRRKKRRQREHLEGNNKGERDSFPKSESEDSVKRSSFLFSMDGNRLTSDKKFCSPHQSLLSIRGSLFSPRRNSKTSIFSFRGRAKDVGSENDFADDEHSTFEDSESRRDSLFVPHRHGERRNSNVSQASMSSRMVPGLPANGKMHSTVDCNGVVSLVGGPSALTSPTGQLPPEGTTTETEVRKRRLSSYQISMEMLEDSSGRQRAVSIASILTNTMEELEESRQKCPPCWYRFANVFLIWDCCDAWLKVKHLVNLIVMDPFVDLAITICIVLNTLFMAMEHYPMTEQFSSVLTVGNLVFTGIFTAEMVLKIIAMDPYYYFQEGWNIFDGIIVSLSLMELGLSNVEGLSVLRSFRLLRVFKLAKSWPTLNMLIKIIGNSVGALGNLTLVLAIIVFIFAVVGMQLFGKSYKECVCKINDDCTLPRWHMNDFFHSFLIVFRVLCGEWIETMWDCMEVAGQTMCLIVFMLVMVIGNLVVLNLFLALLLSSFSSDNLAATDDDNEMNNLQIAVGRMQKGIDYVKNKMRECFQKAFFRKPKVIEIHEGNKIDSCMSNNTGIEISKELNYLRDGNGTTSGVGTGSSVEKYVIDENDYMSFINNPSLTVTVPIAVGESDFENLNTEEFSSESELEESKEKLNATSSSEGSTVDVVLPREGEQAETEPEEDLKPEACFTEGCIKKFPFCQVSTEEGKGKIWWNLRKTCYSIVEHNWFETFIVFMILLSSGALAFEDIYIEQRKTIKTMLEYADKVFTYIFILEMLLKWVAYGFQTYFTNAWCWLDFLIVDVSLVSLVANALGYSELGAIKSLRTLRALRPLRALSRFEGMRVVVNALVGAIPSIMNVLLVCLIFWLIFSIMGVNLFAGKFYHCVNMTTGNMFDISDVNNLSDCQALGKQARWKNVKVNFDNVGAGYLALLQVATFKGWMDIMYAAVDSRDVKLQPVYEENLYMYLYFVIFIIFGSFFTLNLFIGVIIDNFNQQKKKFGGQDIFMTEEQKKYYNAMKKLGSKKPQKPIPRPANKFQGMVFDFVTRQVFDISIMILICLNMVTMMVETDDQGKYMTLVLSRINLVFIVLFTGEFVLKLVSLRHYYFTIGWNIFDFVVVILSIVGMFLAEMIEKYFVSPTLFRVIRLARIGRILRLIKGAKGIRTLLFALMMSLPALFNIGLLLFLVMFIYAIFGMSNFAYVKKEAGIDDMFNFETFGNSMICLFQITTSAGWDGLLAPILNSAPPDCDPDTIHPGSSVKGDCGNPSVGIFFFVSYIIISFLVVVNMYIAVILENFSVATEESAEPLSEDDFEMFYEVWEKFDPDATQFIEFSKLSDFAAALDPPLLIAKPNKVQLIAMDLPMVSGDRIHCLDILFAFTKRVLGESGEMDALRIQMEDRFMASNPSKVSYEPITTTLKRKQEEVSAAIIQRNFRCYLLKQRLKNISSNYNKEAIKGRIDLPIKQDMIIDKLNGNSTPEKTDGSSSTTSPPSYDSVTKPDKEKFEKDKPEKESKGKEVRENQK

[2] = target: human Nav1.4 voltage-gated sodium channel (human) (UniProt P35499)
human Nav1.4 voltage-gated sodium channel (human), sequence (P35499 whole entry): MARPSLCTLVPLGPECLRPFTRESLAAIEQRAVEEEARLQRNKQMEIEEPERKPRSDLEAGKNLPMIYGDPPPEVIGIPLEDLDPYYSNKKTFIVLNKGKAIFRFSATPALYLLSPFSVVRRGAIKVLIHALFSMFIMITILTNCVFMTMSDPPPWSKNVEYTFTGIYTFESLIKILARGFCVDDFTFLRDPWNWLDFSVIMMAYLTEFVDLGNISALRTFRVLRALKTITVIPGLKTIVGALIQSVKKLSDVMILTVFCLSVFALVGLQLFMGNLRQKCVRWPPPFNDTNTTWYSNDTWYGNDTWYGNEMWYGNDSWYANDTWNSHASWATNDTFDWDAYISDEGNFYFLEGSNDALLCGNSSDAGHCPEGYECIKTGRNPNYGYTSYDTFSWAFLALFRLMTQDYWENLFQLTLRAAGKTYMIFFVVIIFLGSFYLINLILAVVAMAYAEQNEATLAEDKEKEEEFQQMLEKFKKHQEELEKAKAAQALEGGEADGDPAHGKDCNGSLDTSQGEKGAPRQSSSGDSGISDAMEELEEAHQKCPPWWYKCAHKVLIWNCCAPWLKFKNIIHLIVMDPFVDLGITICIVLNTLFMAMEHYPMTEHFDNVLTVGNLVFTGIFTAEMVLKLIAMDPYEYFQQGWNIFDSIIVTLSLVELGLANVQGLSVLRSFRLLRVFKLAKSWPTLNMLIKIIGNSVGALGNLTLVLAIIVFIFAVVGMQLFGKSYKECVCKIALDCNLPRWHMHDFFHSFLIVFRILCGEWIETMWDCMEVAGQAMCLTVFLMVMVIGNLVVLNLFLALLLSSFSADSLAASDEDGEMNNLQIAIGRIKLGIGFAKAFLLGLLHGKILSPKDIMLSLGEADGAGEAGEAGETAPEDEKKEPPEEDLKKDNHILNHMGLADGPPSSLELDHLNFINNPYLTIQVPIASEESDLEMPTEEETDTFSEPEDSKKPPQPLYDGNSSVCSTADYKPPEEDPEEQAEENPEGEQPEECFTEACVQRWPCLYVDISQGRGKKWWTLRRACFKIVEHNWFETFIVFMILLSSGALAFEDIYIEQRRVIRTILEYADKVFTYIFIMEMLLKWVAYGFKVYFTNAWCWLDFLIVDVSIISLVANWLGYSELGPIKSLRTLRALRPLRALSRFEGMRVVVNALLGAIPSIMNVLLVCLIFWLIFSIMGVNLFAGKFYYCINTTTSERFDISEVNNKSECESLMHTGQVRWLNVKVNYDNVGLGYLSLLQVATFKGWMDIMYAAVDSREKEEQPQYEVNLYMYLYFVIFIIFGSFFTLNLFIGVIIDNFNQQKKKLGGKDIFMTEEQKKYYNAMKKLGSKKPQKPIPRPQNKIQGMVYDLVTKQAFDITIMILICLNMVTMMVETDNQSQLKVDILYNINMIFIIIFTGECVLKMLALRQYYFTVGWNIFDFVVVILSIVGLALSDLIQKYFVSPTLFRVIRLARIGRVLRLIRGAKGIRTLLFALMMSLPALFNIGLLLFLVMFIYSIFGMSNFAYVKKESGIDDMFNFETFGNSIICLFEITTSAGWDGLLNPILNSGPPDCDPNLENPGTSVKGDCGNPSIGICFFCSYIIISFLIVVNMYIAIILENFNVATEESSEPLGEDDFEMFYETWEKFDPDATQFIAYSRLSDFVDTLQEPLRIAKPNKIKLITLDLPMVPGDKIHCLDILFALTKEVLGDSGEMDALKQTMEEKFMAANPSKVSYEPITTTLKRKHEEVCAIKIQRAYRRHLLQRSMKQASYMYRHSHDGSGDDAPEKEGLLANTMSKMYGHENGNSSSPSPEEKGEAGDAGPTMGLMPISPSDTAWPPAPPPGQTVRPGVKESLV

[3] = target: human Nav1.5 voltage-gated sodium channel (human) (UniProt Q14524)
[4] = target: human Nav1.3 voltage-gated sodium channel (human) (UniProt Q9NY46)
human Nav1.3 voltage-gated sodium channel (human), sequence (Q9NY46 whole entry): as the sequence (Q9NY46 whole entry) above

[5] = target: human Nav1.7 voltage-gated sodium channel (human) (UniProt Q15858)
[6] = target: human voltage-gated sodium channel Nav1.7 (human) (UniProt Q15858)
[7] = target: human voltage-gated sodium channel Nav1.5 (human) (UniProt Q14524)
[8] = target: human voltage-gated sodium channel Nav1.4 (human) (UniProt P35499)
human voltage-gated sodium channel Nav1.4 (human), sequence (P35499 whole entry): as the sequence (P35499 whole entry) above

[Ala5;Phe6;Ile13;Arg28]GpTx-1(1-34)-FreeAcid (peptide)
IWQ Use Nav1.3 IC50 [1]: 3 µM

[Ala5;Phe6;K(Ac-Pra)13;Arg28]GpTx-1(1-34) (peptide)
IWQ Use Nav1.4 IC50 (IonWorks Quattro electrophysiology) [2]: 18 µM | IWQ Use Nav1.5 IC50 (IonWorks Quattro electrophysiology) [3]: 24.6 µM | IWQ Use Nav1.3 IC50 (IonWorks Quattro electrophysiology) [4]: 0.25 µM | IWQ Use Nav1.7 IC50 (IonWorks Quattro electrophysiology) [5]: 0.78 µM

[Ala5;Phe6;Leu13;Arg28]GpTx-1(1-34)-FreeAcid (peptide)
IWQ Use Nav1.7 IC50 [6]: 4.5 µM | IWQ Use Nav1.3 IC50 [1]: 4.5 µM

[Ala5;Phe6;Lys13;Arg28]GpTx-1(1-34)-FreeAcid (peptide)
IWQ Use Nav1.7 IC50 [6]: 3.6 µM | IWQ Use Nav1.3 IC50 [1]: 0.3 µM | IWQ Use Nav1.5 IC50 [7]: 2.8 µM

[Ala5;Phe6;Met13;Arg28]GpTx-1(1-34)-FreeAcid (peptide)
IWQ Use Nav1.7 IC50 [6]: 4.7 µM | IWQ Use Nav1.3 IC50 [1]: 0.8 µM

[Ala5;Phe6;Pra12;Leu26;Arg28]GpTx-1(1-34) (peptide)
IWQ Use Nav1.5 IC50 (IonWorks Quattro electrophysiology) [3]: 36.5 µM | IWQ Use Nav1.3 IC50 (IonWorks Quattro electrophysiology) [4]: 0.12 µM | IWQ Use Nav1.7 IC50 (IonWorks Quattro electrophysiology) [5]: 0.13 µM

[Ala5;Phe6;Pro13;Arg28]GpTx-1(1-34)-FreeAcid (peptide)
IWQ Use Nav1.7 IC50 [6]: 2.9 µM | IWQ Use Nav1.3 IC50 [1]: 2.9 µM

[Ala5;Phe6;Ser13;Arg28]GpTx-1(1-34)-FreeAcid (peptide)
IWQ Use Nav1.3 IC50 [1]: 1.1 µM

[Ala5;Phe6;Thr13;Arg28]GpTx-1(1-34)-FreeAcid (peptide)
IWQ Use Nav1.3 IC50 [1]: 1.3 µM

[Ala5;Phe6;Val13;Arg28]GpTx-1(1-34)-FreeAcid (peptide)
IWQ Use Nav1.3 IC50 [1]: 1.7 µM

[Nva5;Leu6;K(4-Pen)13;Arg28]GpTx-1(1-34) (peptide)
IWQ Use Nav1.5 IC50 (IonWorks Quattro electrophysiology) [3]: 37.5 µM | IWQ Use Nav1.3 IC50 (IonWorks Quattro electrophysiology) [4]: 0.27 µM | IWQ Use Nav1.7 IC50 (IonWorks Quattro electrophysiology) [5]: 0.31 µM

D[Abu]LG[Nva]LRKCIPDNDKC[Abu]RPNLVCSRTHEWCKYVF (ends and bridges not checked) [[2-Abu2,17;Nva5;Leu6;Glu28]GpTx-1(1-34)]
IWQ Use Nav1.7 (µM) (IC50, IonWorks Quattro population patch clamp) [6]: > 5 µM | IWQ Use Nav1.3 (µM) (IC50, IonWorks Quattro population patch clamp) [1]: > 5 µM | IWQ Use Nav1.4 (µM) (IC50, IonWorks Quattro population patch clamp) [8]: > 50 µM | IWQ Use Nav1.5 (µM) (IC50, IonWorks Quattro population patch clamp) [7]: > 50 µM

D[Abu]LG[Abu]LRKCIPDNDKC[Abu]RPNLVCSRTHEWCKYVF (ends and bridges not checked) [[2-Abu2,5,17;Leu6;Glu28]GpTx-1(1-34)]
IWQ Use Nav1.7 (µM) (IC50, IonWorks Quattro population patch clamp) [6]: 4.3 µM | IWQ Use Nav1.3 (µM) (IC50, IonWorks Quattro population patch clamp) [1]: > 5 µM | IWQ Use Nav1.4 (µM) (IC50, IonWorks Quattro population patch clamp) [8]: > 50 µM | IWQ Use Nav1.5 (µM) (IC50, IonWorks Quattro population patch clamp) [7]: > 50 µM

D[Abu]LGALRKCIPDNDKC[Abu]RPNLVCSRTHEWCKYVF (ends and bridges not checked) [[2-Abu2,17;Ala5;Leu6;Glu28]GpTx-1(1-34)]
IWQ Use Nav1.7 (µM) (IC50, IonWorks Quattro population patch clamp) [6]: 4.3 µM | IWQ Use Nav1.3 (µM) (IC50, IonWorks Quattro population patch clamp) [1]: > 5 µM | IWQ Use Nav1.4 (µM) (IC50, IonWorks Quattro population patch clamp) [8]: > 50 µM | IWQ Use Nav1.5 (µM) (IC50, IonWorks Quattro population patch clamp) [7]: > 50 µM

D[Abu]LGVLRKCIPDNDKC[Abu]RPNLVCSRTHEWCKYVF (ends and bridges not checked) [[2-Abu2,17;Val5;Leu6;Glu28]GpTx-1(1-34)]
IWQ Use Nav1.7 (µM) (IC50, IonWorks Quattro population patch clamp) [6]: > 5 µM | IWQ Use Nav1.3 (µM) (IC50, IonWorks Quattro population patch clamp) [1]: > 5 µM | IWQ Use Nav1.4 (µM) (IC50, IonWorks Quattro population patch clamp) [8]: > 50 µM | IWQ Use Nav1.5 (µM) (IC50, IonWorks Quattro population patch clamp) [7]: 33 µM

DCLGALRKCEPD[Pra]DKCCRPNLVCSRLHRWCKYVF (ends and bridges not checked) [[Ala5;Leu6,26;Glu10;Pra13;Arg28]GpTx-1(1-34)]
IWQ Use Nav1.4 IC50 (IonWorks Quattro electrophysiology) [2]: > 50 µM | Nav1.7 Use IC50 (µM), electrophysiology by PatchXpress [6]: 0.013 µM | IWQ Use Nav1.5 IC50 (IonWorks Quattro electrophysiology) [3]: > 50 µM | Nav1.4 Use IC50 (µM), electrophysiology by PatchXpress [8]: > 10 µM | Nav1.5 Use IC50 (µM), electrophysiology by PatchXpress [7]: > 10 µM | IWQ Use Nav1.3 IC50 (IonWorks Quattro electrophysiology) [4]: 1.4 µM | IWQ Use Nav1.7 IC50 (IonWorks Quattro electrophysiology) [5]: 0.7 µM

DCLG[Abu]LRKCIPDK(4‑Pen)DKCCRPNLVCSRTHEWCKYVF (ends and bridges not checked) [[2-Abu5;Leu6;K(4-Pen)13;Glu28]GpTx-1(1-34)]
IWQ Use Nav1.4 IC50 (IonWorks Quattro electrophysiology) [2]: > 5 µM | IWQ Use Nav1.5 IC50 (IonWorks Quattro electrophysiology) [3]: > 5 µM | IWQ Use Nav1.3 IC50 (IonWorks Quattro electrophysiology) [4]: 4.1 µM | IWQ Use Nav1.7 IC50 (IonWorks Quattro electrophysiology) [5]: 1.8 µM

DCLGALRKCIPDHDKCCRPNLVCSRTHRWCKYVF-OH (ends and bridges not checked) [[Ala5;Leu6;His13;Arg28]GpTx-1(1-34)-FreeAcid]
IWQ Use Nav1.7 [6]: > 5 µM | IWQ Use Nav1.3 [1]: 3.9 µM | IWQ Use Nav1.4 [8]: > 5 µM | IWQ Use Nav1.5 [7]: > 5 µM

B1: [Ala5;Leu6,26;Glu10;Atz(PEG11-((2-hydroxyethyl)thio)acetamide)13;Arg28]GpTx-1(1-34) (peptide)
peptide: DCLGALRKCEPD[Atz]([PEG11′-X2])DKCCRPNLVCSRLHRWCKYVF
modifications: ends and bridges not checked; also: printed as [Ala5;Leu6,26;Glu10;Atz(PEG11-((2-hydroxyethyl)thio)acetamide)13;Arg28]GpTx-1(1-34)
Nav1.7 Use IC50 (PatchXpress electrophysiology, inhibition of sodium current) [6]: 0.054 µM | Nav1.4 Use IC50 (PatchXpress electrophysiology, inhibition of sodium current) [8]: > 10 µM | Nav1.5 Use IC50 (PatchXpress electrophysiology, inhibition of sodium current) [7]: > 10 µM
